Patent publication US20220289837A1, “Cystic Fibrosis Transmembrane Conductance Regulator Stabilizing Agents” (VIB VZW, priority 2019, published 2022)

B1: T27: NBD1-specific CFTR-stabilizing nanobody, SEQ ID NO:4, binds epitope 1 (protein)
VHH: QVQLQESGGGLEQPGGSLRLSCATSGVIFGINAMGWYRQAPGKQRELVATFTSGGSTNYADFVEGRFTISRDNAKNTVYLQMNGLRPEDTAVYYCHATVVVSRYGLTYDYWGQGTQVTVSS
modifications: T27 Nanobody amino acid sequence
B2: D12: NBD1-specific CFTR-stabilizing nanobody, SEQ ID NO:2, binds epitope 1 (protein)
VHH: QVQLQESGGGLVQAGSSLRLACAATGSIRSINNMGWYRQAPGKQRGMVAIITRVGNTDYADSVKGRFTISRDNAKNTVYLQMNSLKPEDTATYYCHAEITEQSRPFYLTDDYWGQGTQVTVSS
modifications: D12 Nanobody amino acid sequence
B3: G3a: non-stabilizing nanobody, SEQ ID NO:50, recognizes the structurally diverse region of NBD1 (protein)
VHH: QVQLQESGGGLVQAGGSLRLSCTASGRAFSWYVMGWFRQAPGKEREFVATVSGNGSRRDYADSVKGRFTISRDNAKNTVYLQMNSLKPEDTAVYYCAASSTYYYTDPEKYDYWGQGTQVTVSS
modifications: G3a Nanobody
B4: T2a: NBD1-specific CFTR-stabilizing nanobody, SEQ ID NO:3, binds epitope 1 (protein)
VHH: QVQLQESGGGLVQAGGSLRLSCAASGSIFRIDAMGWYRQAPGKQRELVAHSTSGGSTDYADSVKGRFTISRDNAKNTVYLQMNSLKPEDTAVYYCNADVRTRWYASNNYWGQGTQVTVSS
modifications: T2a Nanobody amino acid sequence
B5: T8: nanobody, SEQ ID NO:7, binds epitope 2 including F508, stabilizes WT CFTR but not F508del (protein)
VHH: QVQLQESGGGLVQPGGSLRLSCAASGSTSSINAMGWYRQAPGKQREPVAISSSGGDTRYAEPVKGRFTISRDNAQNKVYLQMNSLKPEDTAVYYCWLNWGRTSVNSWGQGTQVTVSS
modifications: T8 Nanobody amino acid sequence

Columns and labels:
2PT-NBD1 [1] = molecular target: T1, 2PT-NBD1 (Homo sapiens, UniProt P13569, A534P/I539T/S492P/V470M); experiment: Thermal shift assay (DSF) of 2PT-NBD1; format: binding; conditions: versus isolated 2PT-NBD1
T1 construct: 2PT-NBD1 mutants (residues 387-646 containing the mutations S492P, A534P, I539T); His6-SUMO (N, cleaved yes); made in house; host or cells: Escherichia coli BL21(DE3) pLysS
T1 sequence (P13569 388-646 V470M/S492P/A534P/I539T): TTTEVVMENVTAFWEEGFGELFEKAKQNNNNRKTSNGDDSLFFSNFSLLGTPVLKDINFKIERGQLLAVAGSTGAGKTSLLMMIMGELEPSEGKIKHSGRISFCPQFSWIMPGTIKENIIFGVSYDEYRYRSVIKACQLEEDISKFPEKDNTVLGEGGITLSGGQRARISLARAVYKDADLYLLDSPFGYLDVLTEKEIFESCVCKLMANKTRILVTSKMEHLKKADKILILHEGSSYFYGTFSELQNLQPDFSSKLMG
Protocol: Solutions of either 2PT-NBD1 or F508del-2PT-NBD1 (10 μM final concentration), nanobodies (30 μM final concentration) and 2.5× or 5× concentrated SYPRO Orange Protein Stain (Molecular Probes) diluted in 20 mM HEPES pH 7.5, 150 mM NaCl, 3 mM MgCl2, 2 mM ATP and 10% (w/v) glycerol, 10% (w/v) ethylene glycol, were added to the wells of a 96-well PCR plates type BR white (VWR) in a final volume of 25 μl. Plates were sealed with EasySeal sheets (Molecular dimensions) and spun 2 min at 900× g. SYPRO orange fluorescence was monitored in CFX96 Touch Real-Time PCR Detection System (Bio-Rad) using FRET scan mode from 10 to 80° C. in increments of either 1° C. or 0.2° C.

wt-CFTR = wt-CFTR (Homo sapiens, UniProt P13569); experiment: Thermal inactivation of CFTR (residual ATPase activity after heat challenge); format: biochemical; set-up: His10-SUMO* (N); FLAG; EGFP (C); made in house; host or cells: HEK 293 cell line D165; conditions: residual ATPase activity after 30 min heat challenge
wt-CFTR, sequence (P13569 whole entry): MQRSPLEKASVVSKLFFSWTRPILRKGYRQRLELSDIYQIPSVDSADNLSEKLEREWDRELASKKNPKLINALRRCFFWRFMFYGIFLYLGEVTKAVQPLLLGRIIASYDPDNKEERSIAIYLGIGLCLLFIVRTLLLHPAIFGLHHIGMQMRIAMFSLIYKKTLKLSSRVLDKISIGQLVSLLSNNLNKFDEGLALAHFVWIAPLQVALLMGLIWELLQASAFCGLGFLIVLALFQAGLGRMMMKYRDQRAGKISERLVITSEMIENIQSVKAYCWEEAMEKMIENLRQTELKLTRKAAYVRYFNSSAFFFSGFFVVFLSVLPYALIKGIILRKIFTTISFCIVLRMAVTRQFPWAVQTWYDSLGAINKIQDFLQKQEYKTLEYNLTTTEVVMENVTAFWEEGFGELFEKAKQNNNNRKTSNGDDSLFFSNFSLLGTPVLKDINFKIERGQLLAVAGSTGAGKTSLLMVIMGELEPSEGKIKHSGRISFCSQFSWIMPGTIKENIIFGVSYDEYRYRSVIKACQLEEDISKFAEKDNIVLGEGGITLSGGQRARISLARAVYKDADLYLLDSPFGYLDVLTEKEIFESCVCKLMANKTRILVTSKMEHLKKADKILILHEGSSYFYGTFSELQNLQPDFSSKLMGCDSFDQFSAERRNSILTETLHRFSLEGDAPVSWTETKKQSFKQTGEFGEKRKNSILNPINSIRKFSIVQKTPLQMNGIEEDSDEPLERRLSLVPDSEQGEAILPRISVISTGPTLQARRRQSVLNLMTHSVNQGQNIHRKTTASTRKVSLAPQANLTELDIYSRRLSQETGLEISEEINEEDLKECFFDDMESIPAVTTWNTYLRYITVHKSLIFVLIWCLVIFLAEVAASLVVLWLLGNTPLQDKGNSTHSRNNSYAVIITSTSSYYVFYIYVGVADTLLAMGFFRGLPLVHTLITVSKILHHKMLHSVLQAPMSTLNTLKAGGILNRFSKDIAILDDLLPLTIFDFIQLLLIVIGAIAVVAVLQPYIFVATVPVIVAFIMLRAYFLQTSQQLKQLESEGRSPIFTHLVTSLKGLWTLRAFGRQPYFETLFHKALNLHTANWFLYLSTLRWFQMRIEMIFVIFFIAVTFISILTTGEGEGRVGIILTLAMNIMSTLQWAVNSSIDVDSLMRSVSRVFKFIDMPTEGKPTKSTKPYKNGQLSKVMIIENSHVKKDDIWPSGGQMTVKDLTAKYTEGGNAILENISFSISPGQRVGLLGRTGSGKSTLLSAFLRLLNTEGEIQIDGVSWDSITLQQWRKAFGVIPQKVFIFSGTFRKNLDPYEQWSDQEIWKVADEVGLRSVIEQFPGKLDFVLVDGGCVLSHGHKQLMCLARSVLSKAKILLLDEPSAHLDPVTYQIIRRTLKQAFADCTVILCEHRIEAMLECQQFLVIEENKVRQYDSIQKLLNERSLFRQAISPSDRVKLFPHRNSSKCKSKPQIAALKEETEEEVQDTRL
Protocol: To determine effect of nanobodies on functional stability, aliquots of purified wt-CFTR (25 nM) were preincubated 1 h on ice with 1 μM nanobody (or 15 μM, in the case of G3a). Substrate α-[32P]-ATP (2 μl) was then added for measurement of ATPase activity as previously described^[48]. Then, nanobody protection against thermal denaturation was determined after a 30 min thermal challenge of the protein complexes followed by an assay of residual ATPase.

2PT-NBD1 [2] = molecular target: T1, 2PT-NBD1; experiment: NBD1 ELISA dose-response, nanobody binding to immobilized 2PT-NBD1; conditions: immobilized biotinylated 2PT-NBD1
Protocol: For dose-response assays, Nunc MaxiSorp 96-well plates (ThermoScientific), were coated with 5 μg/ml NeutrAvidin Biotin-Binding protein (ThermoScientific) overnight at 4° C. and blocked 2 h at room temperature (RT) with 2% milk in phosphate-buffered saline (PBS). Each new reagent addition was preceded by three washes with 200 μl of NBD1 buffer (20 mM HEPES pH 7.5, 150 mM NaCl, and 10% (w/v) glycerol, 10% (w/v) ethylene glycol, 2 mM ATP, 3 mM MgCl2). Then, biotinylated purified NBD1 proteins at 5 μg/ml were immobilized 30 min at RT followed by 1 h RT incubation with 100 μl various concentrations (0-20 μg/ml) of purified nanobodies. […] 50 μl of 1-Step UltraTMB-ELISA (ThermoScientific) was used as a substrate for the peroxidase and intensity of the reaction was proportional to absorbance measured at 450 nm with SynergyMx (BioTek) after addition of 50 μl H2SO4 at 1M.
Affinity constants (KD) and thermodynamic parameters from ITC experiments were determined using one-site binding model with MicroCal Origin 7.0 software (Origin Lab Corp.). […] DSC data were analyzed with the MicroCal Origin 7.0 software (Origin Lab Corp.), from which the unfolding temperature (Tm) was obtained.

[3] = molecular target: T2, stab-CFTR: 2PT/ΔRI/R1048A_1172X (Homo sapiens, UniProt P13569, A534P/DEL405-436/I539T/R1048A/S492P); experiment: NanoDSF thermostability of stab-CFTR; format: binding; conditions: versus stab-CFTR alone
T2 construct: made in house; host or cells: BHK-21 cells (ATCC CCL-10), pNUT vector
T2 sequence (P13569 with tags, fused parts or gaps DEL405-436/S492P/A534P/I539T/R1048A limits assumed): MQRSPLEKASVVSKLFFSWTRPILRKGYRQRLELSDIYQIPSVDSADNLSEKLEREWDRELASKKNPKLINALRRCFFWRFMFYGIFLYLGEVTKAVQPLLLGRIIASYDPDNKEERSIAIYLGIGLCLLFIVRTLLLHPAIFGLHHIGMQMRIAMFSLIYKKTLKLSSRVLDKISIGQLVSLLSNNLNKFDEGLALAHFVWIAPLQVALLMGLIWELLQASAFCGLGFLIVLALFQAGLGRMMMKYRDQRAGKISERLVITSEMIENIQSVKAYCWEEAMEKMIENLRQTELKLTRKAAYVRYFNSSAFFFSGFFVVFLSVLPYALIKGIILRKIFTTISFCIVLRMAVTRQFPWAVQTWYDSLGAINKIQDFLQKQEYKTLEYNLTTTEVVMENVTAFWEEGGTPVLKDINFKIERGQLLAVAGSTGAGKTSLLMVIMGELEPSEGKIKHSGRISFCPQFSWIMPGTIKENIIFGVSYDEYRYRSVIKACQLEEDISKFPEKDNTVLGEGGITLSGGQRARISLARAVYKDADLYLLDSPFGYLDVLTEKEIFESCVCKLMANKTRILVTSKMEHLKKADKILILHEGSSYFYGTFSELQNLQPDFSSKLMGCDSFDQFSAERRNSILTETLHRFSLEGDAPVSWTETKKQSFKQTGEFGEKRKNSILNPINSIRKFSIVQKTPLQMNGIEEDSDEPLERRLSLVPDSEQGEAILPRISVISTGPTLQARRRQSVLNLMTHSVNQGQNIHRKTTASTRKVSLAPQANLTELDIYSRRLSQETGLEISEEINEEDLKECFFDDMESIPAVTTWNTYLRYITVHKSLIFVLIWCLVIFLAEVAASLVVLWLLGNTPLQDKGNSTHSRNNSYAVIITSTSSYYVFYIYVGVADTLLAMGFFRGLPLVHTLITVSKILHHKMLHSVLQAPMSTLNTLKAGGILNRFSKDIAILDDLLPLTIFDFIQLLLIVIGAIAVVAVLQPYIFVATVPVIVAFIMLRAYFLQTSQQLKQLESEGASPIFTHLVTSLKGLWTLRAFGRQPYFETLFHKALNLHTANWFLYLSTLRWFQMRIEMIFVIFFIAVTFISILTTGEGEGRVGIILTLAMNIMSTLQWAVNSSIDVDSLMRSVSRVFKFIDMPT
Protocol: Purified stabilized human CFTR (stab-CFTR: 2PT/ΔRI/R1048A_1172X) was concentrated to 0.5 mg/ml and mixed with 0.1 mg/ml nanobody (^˜[…]) and capillaries were loaded with a volume of 10 The capillaries were placed into trays of Prometheus NT.48 (Nanotemper) and subjected to the fluorescence analysis. The emission of fluorescent radiation with the wavelengths of 330 nm and 350 nm was measured with the temperature changes from 25 to 85° C., with the rate of 1° C. min-1. The first derivative of 350 nm fluorescence was used to determine the melting temperature of the proteins.

| Molecule | increase of Tm of 2PT-NBD1 (2PT-NBD1 [1]) | shift of CFTR thermal inactivation (wt-CFTR) [°C] | EC50 of binding to 2PT-NBD1 (2PT-NBD1 [2]) | thermostabilization of stab-CFTR (Tm increase) [3] [°C] |
| --- | --- | --- | --- | --- |
| B1 | 11.9 °C |  |  |  |
| B2 | 13.8 °C | 7 |  |  |
| B3 | did not induce a significant shift | 3.1 | weaker binding potency |  |
| B4 | 11.2 °C |  |  | 8 |
| B5 | 9.3 °C |  |  |  |
